Numbered stars: 1 amine (or outer) side, 2 acyl side, 3 side chain; on linkers, the order of the positions; unused ones are H or OH. Square brackets hold non-standard residues; d marks the D form. Side chains are listed from the residue outwards. * marks the point of attachment. C20 diacid = O=C(O)CCCCCCCCCCCCCCCCCCC(=O)*; C18 diacid = O=C(O)CCCCCCCCCCCCCCCCC(=O)*; γGlu = O=C(O)[C@H](CCC(=O)[*:2])N[*:1]; Chem. 27 = not defined here; Chem. 28 = not defined here; Chem. 29 = not defined here; AEEA = NCCOCCOCC(=O)O; Aib = CC(C)(N)C(=O)O
T1: human GIP receptor (human, UniProt P48546 22-466)
T1 sequence (looked up): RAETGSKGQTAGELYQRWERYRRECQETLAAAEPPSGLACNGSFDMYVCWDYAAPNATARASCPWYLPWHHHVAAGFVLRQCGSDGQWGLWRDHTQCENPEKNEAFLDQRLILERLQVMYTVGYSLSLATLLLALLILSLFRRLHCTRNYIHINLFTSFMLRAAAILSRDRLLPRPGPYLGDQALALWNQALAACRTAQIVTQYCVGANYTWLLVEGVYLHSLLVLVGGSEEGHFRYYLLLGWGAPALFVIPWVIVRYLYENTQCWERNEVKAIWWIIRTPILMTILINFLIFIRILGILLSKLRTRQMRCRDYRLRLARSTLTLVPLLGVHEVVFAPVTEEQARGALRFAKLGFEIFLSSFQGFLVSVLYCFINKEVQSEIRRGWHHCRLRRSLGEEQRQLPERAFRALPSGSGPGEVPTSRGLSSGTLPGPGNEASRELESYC

T2: human amylin-3(a) receptor (human, UniProt P30988 25-474; O60896 24-148)
T2 sequence (looked up) 1: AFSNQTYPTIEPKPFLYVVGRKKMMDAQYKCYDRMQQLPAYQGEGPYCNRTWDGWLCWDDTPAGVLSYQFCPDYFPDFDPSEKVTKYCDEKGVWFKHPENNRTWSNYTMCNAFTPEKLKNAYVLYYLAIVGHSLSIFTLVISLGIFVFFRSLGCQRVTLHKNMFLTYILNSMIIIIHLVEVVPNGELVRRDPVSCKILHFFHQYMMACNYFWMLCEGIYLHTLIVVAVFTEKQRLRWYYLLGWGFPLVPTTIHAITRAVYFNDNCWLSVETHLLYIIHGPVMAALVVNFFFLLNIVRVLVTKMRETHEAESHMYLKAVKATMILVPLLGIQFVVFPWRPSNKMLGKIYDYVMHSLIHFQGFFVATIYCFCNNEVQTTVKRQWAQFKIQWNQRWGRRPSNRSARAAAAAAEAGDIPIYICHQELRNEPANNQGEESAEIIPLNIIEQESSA
T2 sequence (looked up) 2: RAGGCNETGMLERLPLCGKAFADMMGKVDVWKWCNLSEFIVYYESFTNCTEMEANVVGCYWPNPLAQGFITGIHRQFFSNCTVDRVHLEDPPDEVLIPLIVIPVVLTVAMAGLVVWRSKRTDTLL


How the values were obtained:
Assay in all cases: cell-based or functional assay
human GIP receptor [1] = target: T1, human GIP receptor
[2] = target: T2, human amylin-3(a) receptor
human GLP-1 receptor [3] = target: T3, human GLP-1 receptor (human, UniProt P43220 24-463)
human GIP receptor [4] = target: T1, human GIP receptor; remark: listed apart in the source
[5] = target: T2, human amylin-3(a) receptor; remark: listed apart in the source
human GLP-1 receptor [6] = target: T3, human GLP-1 receptor; remark: listed apart in the source

| Binder | hGIPR Potency, 1% HSA, EC50 [pM] (human GIP receptor [1]) | hAMYR3 Potency, 1% HSA, EC50 [pM] [2] [pM] | hGLP-1R Potency, 1% HSA, EC50 [pM] (human GLP-1 receptor [3]) | hGIPR Potency, no HSA, EC50 [pM] (human GIP receptor [4]) | hAMYR3 Potency, no HSA, EC50 [pM] [5] [pM] | hGLP-1R Potency, no HSA, EC50 [pM] (human GLP-1 receptor [6]) |
| --- | --- | --- | --- | --- | --- | --- |
| Compound 94 (peptide) peptide: Y[Aib]EGTFTSDYSILLEEQAAREFIEWLLAGGPSRGEASHLSTAQTQRLSAELHK([AEEA-AEEA-γGlu-C20 diacid])LATLPRTETGSGSP-NH2 | 29.5 | 377 | 130 | 2.9 | 3.91 | 16.1 |
| Compound 93 (peptide) peptide: H[Aib]HGTFTSDYSILLEEQAAREFIEWLLAGGPSSGAGQAPGQAPLASHLSTAQTQRLSAELHK([AEEA-AEEA-γGlu-C18 diacid])LATLPRTETGSGSP-NH2 | 8.58 | 66.4 | 16.4 | 2.54 | 2.23 | 4.11 |
| Compound 97 (peptide) peptide: Y[Aib]EGTFTSDYSILLEEQAAREFIEWLLAGGPSSGAGQAPGASHLSTAQTQRLSAELHK([AEEA-AEEA-γGlu-C18 diacid])LATLPRTETGSGSP-NH2 | 8.38 | 132 | 109 | 2.3 | 2.81 | 16.1 |
| Compound 92 (peptide) peptide: H[Aib]HGTFTSDYSILLEEQAAREFIEWLLAGGPSSGAGQAPGQAPGASHLSTAQTQRLSAELHRLATLPK([AEEA-AEEA-γGlu-C18 diacid])TETGSGSP-NH2 | 8.53 | 75.1 | 13.4 | 3.12 | 2.64 | 2.55 |
| Compound 95 (peptide) peptide: Y[Aib]EGTFTSDYSILLEEQAAREFIEWLLAGGPSGGGGEASHLSTAQTQRLSAELHK([AEEA-AEEA-γGlu-C18 diacid])LATLPRTETGSGSP-NH2 | 22.8 | 233 | 146 | 3.13 | 3.76 | 17.9 |
| Compound 100 (reading uncertain) peptide: H[Aib]HGTFTSDYSILLEEQAAREFIEWLLAGGPSK(Chem. 28)GAPPPSGGGEASHLSTAQTARLSAELHRLADLPRTETGSGSP-NH2 | 217 | 210 | 307 | 3.95 | 3.05 | 5.85 |
| Compound 104 (reading uncertain) peptide: H[Aib]HGTFTSDYSILLEEQAAREFIEWLLAGGPSSGAGQAPGQAPGASHLSTAQTARLSAELHK(Chem. 27)LATLPRTETGSGSP-NH2 | 17.3 | 293 | 19.1 | 3.57 | 1.49 | 4.16 |
| Compound 99 (not fully specified (residue 62)) peptide: Y[Aib]EGTFTSDYSILLEEQAAREFIEWLLAGGPSSGALQAPGQAPLASHLSTAQTQRLSAELHKLATLPRTETGSGSP-NH2 | 7.41 | 129 | 36.2 | 2.09 | 2.82 | 16.7 |
| Compound 10 (reading uncertain) peptide: Y[Aib]EGTFTSDYSILLEEQAAREFIEWLLAGGPSK(Chem. 29)GAPPPSGGGEASELSTAALGRLSAELHELATLPRTETGSGSP-NH2 | 42.4 | 175 | 246 | 2.11 | 6.8 | 13.8 |
| Compound 96 (peptide) peptide: Y[Aib]EGTFTSDYSILLEEQAAREFIEWLLAGGPSGGGGEASHLSTAQTQRLSAELHK([AEEA-AEEA-γGlu-C20 diacid])LATLPRTETGSGSP-NH2 | 29.9 | 595 | 162 | 3.62 | 3.73 | 16.8 |
| Compound 102 (reading uncertain) peptide: Y[Aib]EGTFTSDYSILLEEQAAREFIEWLLAGGPSSGAGQAPGQAPGASHLSTAQTQRLSAELHQLK(Chem. 28)TLPRTETGSGSP-NH2 | 12.2 | 134 | 47 | 2.24 | 3.26 | 11 |
| Compound 98 (peptide) peptide: Y[Aib]EGTFTSDYSILLEEQAAREFIEWLLAGGPSSGAGQAPGQAPLASHLSTAQTARLSAELHK([AEEA-AEEA-γGlu-C18 diacid])LATLPRTETGSGSP-NH2 | 11.2 | 108 | 43.1 | 2.58 | 2.3 | 13.3 |
| Compound 103 (reading uncertain) peptide: H[Aib]HGTFTSDYSILLEEQAAREFIEWLLAGGPSSGAGQAPGQAPGASHLSTAQTARLSAELHK(Chem. 28)LATLPRTETGSGSP-NH2 | 13.3 | 73.6 | 33.1 | 3.14 | 2.42 | 5.24 |
| Compound 101 (reading uncertain) peptide: H[Aib]HGTFTSDYSILLEEQAAREFIEWLLAGGPSK(Chem. 28)GAPPPSGGGEASHLSTAQTARLSAELHQLATLPRTETGSGSP-NH2 | 129 | 95.5 | 179 | 1.87 | 3.08 | 3.24 |

Source: US20260174875A1 (Novo Nordisk A/S, priority 2023, published 2026)
